According to the supplement of paper PMC9112550, “Optimization of the antimicrobial peptide Bac7 by deep mutational scanning” (BMC Biology, 2022):

Tested on: Escherichia coli TOP10
Experiment: shrunken log2 fold change of peptide-encoding DNA abundance (4.5 h post-induction vs induction); higher = less antimicrobial activity (less host growth inhibition)
Settings: time post-induction: 4.5 h; library: site-saturation at positions 5, 18, 19, 20
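Further: peptides expressed intracellularly from a pBAD plasmid library in pooled LB shake-flask culture, induced with 0.3% L-arabinose, DNA abundance read by NGS, three biological replicates, DESeq2 with apeglm shrinkage.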

RRIRHRPPRLPRPRPRPENPPRP
shrunken log2 fold change: -0.277

RRIRHRPPRLPRPRPRPEPLPRP
shrunken log2 fold change: 0.0544

RRIRHRPPRLPRPRPRPEPQPRP
shrunken log2 fold change: 0.39

RRIRHRPPRLPRPRPRPEPSPRP
shrunken log2 fold change: 0.137

RRIRHRPPRLPRPRPRPEQQPRP
shrunken log2 fold change: 0.096

RRIRHRPPRLPRPRPRPESPPRP
shrunken log2 fold change: 0.0722

RRIRHRPPRLPRPRPRPESSPRP
shrunken log2 fold change: 0.087

RRIRHRPPRLPRPRPRPETDPRP
shrunken log2 fold change: -0.253

RRIRHRPPRLPRPRPRPETHPRP
shrunken log2 fold change: 0.0411

RRIRHRPPRLPRPRPRPETIPRP
shrunken log2 fold change: -0.0239

RRIRHRPPRLPRPRPRPEVIPRP
shrunken log2 fold change: 0.0357

RRIRHRPPRLPRPRPRPEYGPRP
shrunken log2 fold change: -0.0913

RRIRHRPPRLPRPRPRPFAAPRP
shrunken log2 fold change: -0.0135

RRIRHRPPRLPRPRPRPFAMPRP
shrunken log2 fold change: -0.424

RRIRHRPPRLPRPRPRPFCAPRP
shrunken log2 fold change: 0.076

RRIRHRPPRLPRPRPRPFCGPRP
shrunken log2 fold change: 0.336

RRIRHRPPRLPRPRPRPFCTPRP
shrunken log2 fold change: -0.294

RRIRHRPPRLPRPRPRPFDGPRP
shrunken log2 fold change: -0.258

RRIRHRPPRLPRPRPRPFDHPRP
shrunken log2 fold change: -0.0277

RRIRHRPPRLPRPRPRPFENPRP
shrunken log2 fold change: -0.0293

RRIRHRPPRLPRPRPRPFEPPRP
shrunken log2 fold change: 0.00846

RRIRHRPPRLPRPRPRPFETPRP
shrunken log2 fold change: 0.0877

RRIRHRPPRLPRPRPRPFFNPRP
shrunken log2 fold change: -0.632

RRIRHRPPRLPRPRPRPFFTPRP
shrunken log2 fold change: -0.231

RRIRHRPPRLPRPRPRPFHTPRP
shrunken log2 fold change: -0.0888

RRIRHRPPRLPRPRPRPFKTPRP
shrunken log2 fold change: -0.256

RRIRHRPPRLPRPRPRPFLIPRP
shrunken log2 fold change: -0.687

RRIRHRPPRLPRPRPRPFNFPRP
shrunken log2 fold change: -0.648

RRIRHRPPRLPRPRPRPFNWPRP
shrunken log2 fold change: -0.194

RRIRHRPPRLPRPRPRPFPVPRP
shrunken log2 fold change: 0.0399

RRIRHRPPRLPRPRPRPFQRPRP
shrunken log2 fold change: 0.0038

RRIRHRPPRLPRPRPRPFRYPRP
shrunken log2 fold change: -0.737

RRIRHRPPRLPRPRPRPFTFPRP
shrunken log2 fold change: -0.0857

RRIRHRPPRLPRPRPRPFTHPRP
shrunken log2 fold change: -0.0608

RRIRHRPPRLPRPRPRPFWTPRP
shrunken log2 fold change: -0.766

RRIRHRPPRLPRPRPRPFYSPRP
shrunken log2 fold change: -0.00674

RRIRHRPPRLPRPRPRPGAHPRP
shrunken log2 fold change: -0.457

RRIRHRPPRLPRPRPRPGAIPRP
shrunken log2 fold change: -0.15

RRIRHRPPRLPRPRPRPGDNPRP
shrunken log2 fold change: -0.0143

RRIRHRPPRLPRPRPRPGDPPRP
shrunken log2 fold change: 0.219

RRIRHRPPRLPRPRPRPGDSPRP
shrunken log2 fold change: -0.53

RRIRHRPPRLPRPRPRPGDYPRP
shrunken log2 fold change: -0.212

RRIRHRPPRLPRPRPRPGEKPRP
shrunken log2 fold change: -0.102

RRIRHRPPRLPRPRPRPGEPPRP
shrunken log2 fold change: -0.0215

RRIRHRPPRLPRPRPRPGFVPRP
shrunken log2 fold change: 0.607

RRIRHRPPRLPRPRPRPGGKPRP
shrunken log2 fold change: -0.0185

RRIRHRPPRLPRPRPRPGKAPRP
shrunken log2 fold change: -0.0115

RRIRHRPPRLPRPRPRPGKHPRP
shrunken log2 fold change: -0.362

RRIRHRPPRLPRPRPRPGLFPRP
shrunken log2 fold change: -0.0985

RRIRHRPPRLPRPRPRPGMGPRP
shrunken log2 fold change: 0.0516

RRIRHRPPRLPRPRPRPGNQPRP
shrunken log2 fold change: 0.0401

RRIRHRPPRLPRPRPRPGPIPRP
shrunken log2 fold change: -0.133

RRIRHRPPRLPRPRPRPGPLPRP
shrunken log2 fold change: 0.0825

RRIRHRPPRLPRPRPRPGQDPRP
shrunken log2 fold change: 0.0217

RRIRHRPPRLPRPRPRPGRGPRP
shrunken log2 fold change: 0.529

RRIRHRPPRLPRPRPRPGSWPRP
shrunken log2 fold change: 0.112

RRIRHRPPRLPRPRPRPGTFPRP
shrunken log2 fold change: -0.132

RRIRHRPPRLPRPRPRPGTGPRP
shrunken log2 fold change: -0.0184

RRIRHRPPRLPRPRPRPGTTPRP
shrunken log2 fold change: -0.221

RRIRHRPPRLPRPRPRPGYSPRP
shrunken log2 fold change: 0.0976

RRIRHRPPRLPRPRPRPHCAPRP
shrunken log2 fold change: -0.109

RRIRHRPPRLPRPRPRPHCLPRP
shrunken log2 fold change: -0.777

RRIRHRPPRLPRPRPRPHCMPRP
shrunken log2 fold change: -0.0295

RRIRHRPPRLPRPRPRPHCYPRP
shrunken log2 fold change: 0.0262

RRIRHRPPRLPRPRPRPHEEPRP
shrunken log2 fold change: -0.206

RRIRHRPPRLPRPRPRPHEIPRP
shrunken log2 fold change: -0.0135

RRIRHRPPRLPRPRPRPHGAPRP
shrunken log2 fold change: -0.183

RRIRHRPPRLPRPRPRPHHQPRP
shrunken log2 fold change: -0.364

RRIRHRPPRLPRPRPRPHIAPRP
shrunken log2 fold change: -0.0808

RRIRHRPPRLPRPRPRPHIVPRP
shrunken log2 fold change: -0.104

RRIRHRPPRLPRPRPRPHLAPRP
shrunken log2 fold change: -0.0341

RRIRHRPPRLPRPRPRPHLEPRP
shrunken log2 fold change: -0.0228

RRIRHRPPRLPRPRPRPHMFPRP
shrunken log2 fold change: -0.358

RRIRHRPPRLPRPRPRPHMTPRP
shrunken log2 fold change: -0.0109

RRIRHRPPRLPRPRPRPHNYPRP
shrunken log2 fold change: -0.296

RRIRHRPPRLPRPRPRPHPPPRP
shrunken log2 fold change: 0.261

RRIRHRPPRLPRPRPRPHRDPRP
shrunken log2 fold change: -0.263

RRIRHRPPRLPRPRPRPHRHPRP
shrunken log2 fold change: -0.2

RRIRHRPPRLPRPRPRPHRPPRP
shrunken log2 fold change: -0.133

RRIRHRPPRLPRPRPRPHTPPRP
shrunken log2 fold change: -0.147

RRIRHRPPRLPRPRPRPHTSPRP
shrunken log2 fold change: -0.0988

RRIRHRPPRLPRPRPRPHVWPRP
shrunken log2 fold change: 0.205

RRIRHRPPRLPRPRPRPHWLPRP
shrunken log2 fold change: -0.123

RRIRHRPPRLPRPRPRPHWSPRP
shrunken log2 fold change: -0.205

RRIRHRPPRLPRPRPRPHWYPRP
shrunken log2 fold change: -0.347

RRIRHRPPRLPRPRPRPHYKPRP
shrunken log2 fold change: -0.973

RRIRHRPPRLPRPRPRPHYPPRP
shrunken log2 fold change: -0.208

RRIRHRPPRLPRPRPRPICDPRP
shrunken log2 fold change: -0.174

RRIRHRPPRLPRPRPRPICSPRP
shrunken log2 fold change: 0.0153

RRIRHRPPRLPRPRPRPIFRPRP
shrunken log2 fold change: -0.173

RRIRHRPPRLPRPRPRPIFWPRP
shrunken log2 fold change: -0.0136

RRIRHRPPRLPRPRPRPIGRPRP
shrunken log2 fold change: -0.00982

RRIRHRPPRLPRPRPRPIGSPRP
shrunken log2 fold change: -0.0183

RRIRHRPPRLPRPRPRPIHPPRP
shrunken log2 fold change: -0.154

RRIRHRPPRLPRPRPRPIIEPRP
shrunken log2 fold change: 0.0811

RRIRHRPPRLPRPRPRPIIHPRP
shrunken log2 fold change: 0.142

RRIRHRPPRLPRPRPRPIKDPRP
shrunken log2 fold change: -0.299

RRIRHRPPRLPRPRPRPIMEPRP
shrunken log2 fold change: -0.545

RRIRHRPPRLPRPRPRPINHPRP
shrunken log2 fold change: -0.97

RRIRHRPPRLPRPRPRPINQPRP
shrunken log2 fold change: -0.243

RRIRHRPPRLPRPRPRPINRPRP
shrunken log2 fold change: 0.0787

RRIRHRPPRLPRPRPRPINWPRP
shrunken log2 fold change: -0.35

RRIRHRPPRLPRPRPRPIPHPRP
shrunken log2 fold change: -0.664

RRIRHRPPRLPRPRPRPIRYPRP
shrunken log2 fold change: 0.0301

RRIRHRPPRLPRPRPRPISEPRP
shrunken log2 fold change: -0.0415

RRIRHRPPRLPRPRPRPISKPRP
shrunken log2 fold change: -0.929

RRIRHRPPRLPRPRPRPIVAPRP
shrunken log2 fold change: 0.0238

RRIRHRPPRLPRPRPRPIVSPRP
shrunken log2 fold change: -0.0219

RRIRHRPPRLPRPRPRPIWSPRP
shrunken log2 fold change: -0.085

RRIRHRPPRLPRPRPRPIWYPRP
shrunken log2 fold change: -0.75

RRIRHRPPRLPRPRPRPIYDPRP
shrunken log2 fold change: -0.436

RRIRHRPPRLPRPRPRPIYSPRP
shrunken log2 fold change: 0.0188

RRIRHRPPRLPRPRPRPKARPRP
shrunken log2 fold change: -0.00317

RRIRHRPPRLPRPRPRPKCDPRP
shrunken log2 fold change: -0.0608

RRIRHRPPRLPRPRPRPKCNPRP
shrunken log2 fold change: -0.00178

RRIRHRPPRLPRPRPRPKCQPRP
shrunken log2 fold change: -0.0621

RRIRHRPPRLPRPRPRPKDRPRP
shrunken log2 fold change: 0.00902

RRIRHRPPRLPRPRPRPKEAPRP
shrunken log2 fold change: 0.00884

RRIRHRPPRLPRPRPRPKECPRP
shrunken log2 fold change: -0.212

RRIRHRPPRLPRPRPRPKFEPRP
shrunken log2 fold change: -0.125

RRIRHRPPRLPRPRPRPKGKPRP
shrunken log2 fold change: -0.0894

RRIRHRPPRLPRPRPRPKHPPRP
shrunken log2 fold change: -0.0271

RRIRHRPPRLPRPRPRPKLGPRP
shrunken log2 fold change: -0.249

RRIRHRPPRLPRPRPRPKLMPRP
shrunken log2 fold change: 0.165

RRIRHRPPRLPRPRPRPKLRPRP
shrunken log2 fold change: -0.382

RRIRHRPPRLPRPRPRPKNAPRP
shrunken log2 fold change: -0.223

RRIRHRPPRLPRPRPRPKNHPRP
shrunken log2 fold change: -0.566

RRIRHRPPRLPRPRPRPKPIPRP
shrunken log2 fold change: -0.0951

RRIRHRPPRLPRPRPRPKQVPRP
shrunken log2 fold change: -0.482

RRIRHRPPRLPRPRPRPKRLPRP
shrunken log2 fold change: 0.0708

RRIRHRPPRLPRPRPRPKRPPRP
shrunken log2 fold change: 0.354

RRIRHRPPRLPRPRPRPKTGPRP
shrunken log2 fold change: -0.0854

RRIRHRPPRLPRPRPRPKTTPRP
shrunken log2 fold change: -0.052

RRIRHRPPRLPRPRPRPKVDPRP
shrunken log2 fold change: -0.0132

RRIRHRPPRLPRPRPRPKWLPRP
shrunken log2 fold change: 0.333

RRIRHRPPRLPRPRPRPKYNPRP
shrunken log2 fold change: -0.892

RRIRHRPPRLPRPRPRPLASPRP
shrunken log2 fold change: -0.0121

RRIRHRPPRLPRPRPRPLCSPRP
shrunken log2 fold change: -0.285

RRIRHRPPRLPRPRPRPLDAPRP
shrunken log2 fold change: -0.148

RRIRHRPPRLPRPRPRPLDGPRP
shrunken log2 fold change: -0.34

RRIRHRPPRLPRPRPRPLDLPRP
shrunken log2 fold change: 0.441

RRIRHRPPRLPRPRPRPLFQPRP
shrunken log2 fold change: -0.108

RRIRHRPPRLPRPRPRPLGNPRP
shrunken log2 fold change: 0.017

RRIRHRPPRLPRPRPRPLHIPRP
shrunken log2 fold change: -0.453

RRIRHRPPRLPRPRPRPLIVPRP
shrunken log2 fold change: -0.314

RRIRHRPPRLPRPRPRPLNPPRP
shrunken log2 fold change: -0.204

RRIRHRPPRLPRPRPRPLNSPRP
shrunken log2 fold change: -0.883

RRIRHRPPRLPRPRPRPLQQPRP
shrunken log2 fold change: 0.0446

RRIRHRPPRLPRPRPRPLRIPRP
shrunken log2 fold change: 0.156

RRIRHRPPRLPRPRPRPLRVPRP
shrunken log2 fold change: 0.298
